The record followed here is patent publication US8785400B2, “Methods and compositions relating to islet cell neogenesis” (CureDM Group Holdings, LLC, priority 2006, dated 2014).

Data set [1] is described as follows: Stability of peptide in isotonic saline. Format: physicochemical. Particulars: 20° C. in isotonic saline. As to the method:
Further, HIP2, may be stably stored for long periods of time.
HIP2, HIP1, HIP, controls and progenitor fractions were cultured over 10 days, according to standard protocol. Briefly, pancreata from adult human cadaveric organ donors were obtained through the local organ procurement organization. Islets were isolated according to established protocols described by Bonner-Weir and Jamal. (Bonner-Weir et al. Pediatric Diabetes: 2004; 5 (Suppl 2): 16-22. Jamal et al. Cell Death Differ. 2005 July; 12(7): 702-12). HIP2, HIP1, HIP and INGAP were synthesized by Bachem Bioscience, Malvern, Pa. and were quality tested by HPCL to be greater than 95% pure. Each peptide was provided in lyophilized powder and was resuspended in isotonic saline solution. Stock solutions were made so that only 1-2 ul aliquots were added to primary cell cultures to reach the final concentrations provided below. […] HPLC data confirmed that the peptides remained stable in the isotonic saline after the freeze/thaw cycles.

Data set [2] relates to human cell cultures (mixed islets and ductal tissue cultures). Description: Insulin content by RIA, mixed human islet and ductal cultures (Example 2). Format: cell-based. Particulars: vs HIP1, HIP, hamster INGAP, saline; FIG. 3. The method, then:
HIP2, HIP1, HIP, controls and progenitor fractions were cultured over 10 days, according to standard protocol. Briefly, pancreata from adult human cadaveric organ donors were obtained through the local organ procurement organization. Islets were isolated according to established protocols described by Bonner-Weir and Jamal. (Bonner-Weir et al. Pediatric Diabetes: 2004; 5 (Suppl 2): 16-22. Jamal et al. Cell Death Differ. 2005 July; 12(7): 702-12). HIP2, HIP1, HIP and INGAP were synthesized by Bachem Bioscience, Malvern, Pa. and were quality tested by HPCL to be greater than 95% pure. Each peptide was provided in lyophilized powder and was resuspended in isotonic saline solution. Stock solutions were made so that only 1-2 ul aliquots were added to primary cell cultures to reach the final concentrations provided below. Stock solutions were frozen and thawed a total of three times for the six day treatment. […]
Pancreata from adult human cadaveric organ donors were obtained through the local organ procurement organization. […] Free islets with diameters ranging from 75 to 400 μm, determined to be greater than 90% pure by staining with dithizone (Sigma) a zinc chelater, were collected and washed. […]
Insulin levels were detected by Radioimmunoassay (RIA) from cultures treated with saline only (s/0), HIP2, HIP1, HIP and hamster INGAP. […]

As to “HIP2: Human proIslet Peptide, fragment of human REG3A, in purified, synthetic, or recombinant form (SEQ ID NO:4) (IGLHDPTQGTEPNG; Fragment of naturally occurring human REG3 protein)”, in data set [1], the storage stability entry is on record as “stable for months”. The “increased bioactivity over the other agents used (insulin, RIA)” value in data set [2] is reported as 1.50-3.33 fold.
